{
  "source": "paper PMC9726900",
  "key": {"[1]": {"target": "46w60 nucleosome (recombinant human histone octamer on Widom 601 DNA with 46-bp and 60-bp flanks), Cy5-labelled (human) (UniProt P0C0S8)", "experiment": "MST; CHD4 titrated (1:2 serial dilution) into 25 nM Cy5-labelled 46w60 nucleosome; 50 mM HEPES pH 7.5, 50 mM NaCl, 3 mM MgCl2 dilution buffer, 100 ng/µL BSA, 0.5% glycerol; 10 min on ice; Monolith NT.115, 80% LED, 20% MST power; fit to a 1:1 binding isotherm"}, "[2]": {"system": "CHD4 C1bC2a (SANT-SLIDE) (Homo sapiens)", "experiment": "MST", "settings": "120 mM NaCl, 1 mM TCEP, no Mg2+; CHD4: 50 mM HEPES pH 7.5, NaCl up to 50 mM and MgCl2 up to 3 mM (from dilution buffer), 100 ng/uL BSA, 0.5% glycerol, 25 nM Cy5 substrate; C1bC2a: 20 mM HEPES …"}, "CHD4 WT (Homo sapiens)": {"system": "CHD4 WT (Homo sapiens)", "experiment": "MST", "settings": "3 mM Mg2+ in dilution buffer; CHD4: 50 mM HEPES pH 7.5, NaCl up to 50 mM and MgCl2 up to 3 mM (from dilution buffer), 100 ng/uL BSA, 0.5% glycerol, 25 nM Cy5 substrate; C1bC2a: 20 mM HEPES …"}, "[3]": {"system": "CHD4(1-1230) (Homo sapiens)", "experiment": "MST", "settings": "CHD4: 50 mM HEPES pH 7.5, NaCl up to 50 mM and MgCl2 up to 3 mM (from dilution buffer), 100 ng/uL BSA, 0.5% glycerol, 25 nM Cy5 substrate; C1bC2a: 20 mM HEPES …"}, "[4]": {"system": "CHD4(1-1380) (Homo sapiens)", "experiment": "MST", "settings": "CHD4: 50 mM HEPES pH 7.5, NaCl up to 50 mM and MgCl2 up to 3 mM (from dilution buffer), 100 ng/uL BSA, 0.5% glycerol, 25 nM Cy5 substrate; C1bC2a: 20 mM HEPES …"}, "[5]": {"system": "CHD4(1-1810) (Homo sapiens)", "experiment": "MST", "settings": "CHD4: 50 mM HEPES pH 7.5, NaCl up to 50 mM and MgCl2 up to 3 mM (from dilution buffer), 100 ng/uL BSA, 0.5% glycerol, 25 nM Cy5 substrate; C1bC2a: 20 mM HEPES …"}, "[6]": {"system": "CHD4-IDR2-del- (Homo sapiens)", "experiment": "MST", "settings": "3 mM Mg2+ in dilution buffer; CHD4: 50 mM HEPES pH 7.5, NaCl up to 50 mM and MgCl2 up to 3 mM (from dilution buffer), 100 ng/uL BSA, 0.5% glycerol, 25 nM Cy5 substrate; C1bC2a: 20 mM HEPES …"}, "[7]": {"system": "CHD4-IDR2-scram (Homo sapiens)", "experiment": "MST", "settings": "3 mM Mg2+ in dilution buffer; CHD4: 50 mM HEPES pH 7.5, NaCl up to 50 mM and MgCl2 up to 3 mM (from dilution buffer), 100 ng/uL BSA, 0.5% glycerol, 25 nM Cy5 substrate; C1bC2a: 20 mM HEPES …"}},
  "data": [
    {"substance": "CHD4(1–1540) (from UniProt Q14839 1-1540) (domain or fragment)", "values": [
      {"measurement": "fold decrease in nucleosome binding against WT CHD4", "setting": "[1]", "value": 4, "unit": "fold"}
    ]},
    {"substance": "CHD4-IDR2-del+ (from UniProt Q14839 1-226; Q14839 363-1912) (enzyme)", "values": [
      {"measurement": "fold decrease in affinity against WT CHD4", "setting": "[1]", "value": 5, "unit": "fold"}
    ]},
    {"substance": "CHD4(355–1912) (from UniProt Q14839 355-1912) (domain or fragment)", "values": [
      {"measurement": "fold decrease in substrate binding affinity against WT CHD4", "setting": "[1]", "value": 3, "unit": "fold"}
    ]},
    {"substance": "CHD4(1–1230) (from UniProt Q14839 1-1230) (domain or fragment)", "values": [
      {"measurement": "fold decrease in affinity against WT CHD4", "setting": "[1]", "value": 5, "unit": "fold"},
      {"measurement": "fold increase in binding against CHD4(1–1380)", "setting": "[1]", "value": 2, "unit": "fold"}
    ]},
    {"substance": "CHD4(1–1810) (from UniProt Q14839 1-1810) (domain or fragment)", "values": [
      {"measurement": "fold decrease in affinity against WT CHD4", "setting": "[1]", "value": 3, "unit": "fold"}
    ]},
    {"substance": "CHD4-IDR2-del– (from UniProt Q14839 1-226; Q14839 363-1912) (enzyme)", "values": [
      {"measurement": "Kd", "setting": "[1]", "value": 20, "unit": "nM"}
    ]},
    {"substance": "46w60 DNA (naked)", "values": [
      {"measurement": "Kd", "setting": "[2]", "value": 10000, "unit": "nM"},
      {"measurement": "Kd", "setting": "CHD4 WT (Homo sapiens)", "value": 350, "unit": "nM"}
    ]},
    {"substance": "WT CHD4 (human chromodomain helicase DNA-binding protein 4, full length) (from UniProt Q14839 1-1912) (enzyme)", "values": [
      {"measurement": "Kd", "setting": "[1]", "value": 45, "unit": "nM"}
    ]},
    {"substance": "CHD4(1–1380) (from UniProt Q14839 1-1380) (domain or fragment)", "values": [
      {"measurement": "fold decrease in substrate binding against WT CHD4", "setting": "[1]", "value": 10, "unit": "fold"}
    ]},
    {"substance": "46w60 nucleosome", "values": [
      {"measurement": "Kd", "setting": "CHD4 WT (Homo sapiens)", "value": 45, "unit": "nM"},
      {"measurement": "Kd", "setting": "[3]", "value": 210, "unit": "nM"},
      {"measurement": "Kd", "setting": "[4]", "value": 430, "unit": "nM"},
      {"measurement": "Kd", "setting": "[5]", "value": 150, "unit": "nM"},
      {"measurement": "Kd", "setting": "[6]", "value": 20, "unit": "nM"},
      {"measurement": "Kd", "setting": "[7]", "value": 100, "unit": "nM"}
    ]}
  ]
}
